Measured values reported in publication PMC2118495.
Where two headings read alike, the source gives them in different places.

B1: mouse CD3γ (natural protein)
chain: QTNKAKNLVQVDGSRGDGSVLLTCGLTDKTIKWLKDGSIISPLNATKNTWNLGNNAKDPRGTYQCQGAKETSNPLQVYYRMCENCIELNIGTISGFIFAEVISIFFLALGVYLIAGQDGVRQSRASDKQTLLQNEQLYQPLKDREYDQYSHLQGNQLRKK

How the values were obtained:
Experiment in all cases: native gel or EMSA
[1] = target: human TCRγδ (clonotypic heterodimer of the γδ TCR) (human (endogenous in PBMCs and γδ T cell clones))
[2] = target: mouse TCRγδ (transgenic TCRVγ1.1 and TCRVδ6 chains) (mouse)
[3] = target: mouse TCRγδ (transgenic TCRVγ1.1 and TCRVδ6 chains) (mouse); remark: listed apart in the source

Row | Molecule | stoichiometry N [1] | other results
1 | human CD3γ (from UniProt P09693 23-182) (natural protein) | 1 | –
2 | human CD3δ (from UniProt P04234 22-171) (natural protein) | 1 | –
3 | human CD3ε (from UniProt P07766 23-207) (natural protein) | 2 | –
4 | human ζ chain of the TCR (ζζ dimer) (from UniProt P20963 22-164) (natural protein) | 2 | –
5 | mouse CD3ε (from UniProt P22646 22-189) (natural protein) | – | stoichiometry N [2]: 2
6 | B1 | – | stoichiometry N [3]: 2
